Test results taken from the nanobody polyreactivity screen of Harvey et al. (2022).

assay: yeast display, Sf9 membrane polyspecificity reagent, FACS + sequencing; frameworks hold sequencing errors
How it was run: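 Galactose-induced (36–48 hours) yeast carrying a synthetic nanobody display library were exposed to 10% biotinylated, detergent-solubilized Sf9 membrane reagent at 4 °C for 1 hour. FACS followed streptavidin microbead enrichment, using low and high (top ~1%) gates for expression (anti-HA) and reagent binding (streptavidin). Colony PCR, MiSeq 2 × 250 sequencing and CDR-length filtering followed. Labels for polyreactivity reflect the gate of origin.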

Row | Sequence | polyreactivity (PSR sort gate)
1 | QDQLVESGGGLVQAGGSLSLSCAASGRIFYWYVIGWYRQAPGKEREYVASISWSGGSTYYADSVKGRFTISRDNAKNTVYLQMNSLKPEDTAVYYCNAGSVYTVSLTGHPYDYWGQGTQVTVSS | low polyreactivity
2 | QDQLVESGGGLVQAGGSLSLSCAASGRIYRYYAMGWSRQAPGKERELVADISSGDSTYYADSVKGRFTMSRDNAKNTVYLQMNSLKPEDTAVYNCNADVYSWVSGKEGDYWGQGTQVTVSS | low polyreactivity
3 | QDQLVESGGGLVQAGGTLRLSCAASGRTFYLYAMAWYRQAPGKERELVAAISSGASTYYADSVKGSFTISRDIAKNTVYLQMNSLKPDDTAVYYCAAEFCPQWSGYEYWGQGTLVTVSS | high polyreactivity
4 | QDQLVESGGGLVQAGRSLRLSCAASGRIIKLYAMGWYRQAPGKERELVAAISKSGGNTYADSVKGRFTISRDNAKNTVYLQMNSLKPEDTAVYYCAASVQSTSDPFDYWGQGTQVTVSS | low polyreactivity
5 | QDQLVESGGGLVQAGRSLRLSCAASGYTFRFNAMGWYRQAPGKEREFVAAIDFGGAGTYYADSVKGRFTISRDNAKNTVSLQMNSLKPEDTAVYYCNARDGVTTEFDYWGQGTQVNVSS | low polyreactivity
6 | QDQLVESGGGLVQAGVSLRLSCAASGSIIGSYAMGWYREAPAKERELVAAITRSGSRTYYADSVKGRFTISRDNAKNTVYLQINSLKPEDTAVYYCATGYPGGFDYWGLGTQVTVSS | high polyreactivity
7 | QDQLVESGGGLVQARGSLRLSCAASGRIIKRYVMGWYRQAPGTERELVAAITSGGTNYADSVKGRFTISRDNAKNTVYLQMNSRKPEDTAVYSCAARYLYRAGSNYWGQGTQVTVSS | high polyreactivity
8 | QDQLVESGGGLVQARGSLRLSCASSGSICDHYVMGWYRQAPGKERELVAAITSGDRTNYADSVKGRFTISRDKAKNTVYLQMNSLTPEDTEGYYCNADYQSYFYYTTWYYDYDYWGKGTQVTVSS | low polyreactivity
9 | QDQLVESGGGLVQAVGSLRLSCAASGSIFDVNALGWYRQAPGKERELVAAISQRGTRTYYADSVKGRFTISRDNAKNTVYLQMNSLKPEDTAVYYCNRGGWRQYDSWGQGTQVTVSS | high polyreactivity
10 | QDQLVESGGRLVQAVGSLRLTCAASGRIFRGNGLGWYRQAPGKARELVASISSGGRTNYADSVKGRFTISRDNAKNTVYLQMNSLKPEDTAVYYCSATKSPSLYRWLYDYWGQGTQVTVSS | high polyreactivity
11 | QDQLVESGRGLFQAGGSLRLSCAASGSTLWANAMGWYRQAPGKERELVAAISWRGGRTYYADSVKGRFTISRDNAKNTVYLQMNSLKPEVTAVYYCNAVSYYRPRTDYWGQGTLVTVSS | high polyreactivity
12 | QDQLVESGRGLVQAGGSLRLSCAASGFIFYQNAMGWYRQAPGKERELVAAISWRSGRTYYADSVKGRFTISRDNAKNTVYLQMNSLKPEDTAVYYCNAVRYPSYSPEYGSWGQGTEVTVSS | high polyreactivity
13 | QDQLVESGVGLVQAGGSLRLSCAASGIIIYRNTLGWYRQAPGKERELVAAIRRGGNTYYADSVKGRFTISRDNAKNTVYLQMNSLKPEDSAVYYCAASAGPRASYYYWGQGTQVTVSS | high polyreactivity
14 | QDQLVESRGALVQAGGSLRLSCAASGIIFGRNAMGWYRQAPRKERELVAGITRRGARTYYADSVKGRFTISRDNAKNTVYFQMNILKPEDTAVYYCAAVGPYRWYDYWGQGTQVTVSS | high polyreactivity
15 | QDQLVESRGGEVQAGGSRRLRCAASGLTFLYNAMGWYRQAPGKERELVAAISQSAGSTYYADSVKGRFTISRDTAKNTVYLQLNSLKPEETAVYYFAADWDTPDLVIYDYWGQGTQVTLSS | low polyreactivity
16 | QDQLVESRGGIVQAVRSLRLSSAASGSTYRNYAMGWYRQAPGKERELVAAISGSGGRTNYADSVKGRFTISRDNAKNTVYLQMNSLKQEDTAVYYCNARFPDWALSEISNSTTYGYWGQGTQVNVSS | low polyreactivity
17 | QDQLVESRGGLVQAGGSLRLSCAASGFTFGRYAMGWYRQAPGKERELVAVITSSGGRTYYADSVKGRFTISRDNAKNTVYLQMNSLKPEDTAVYYCHKYPLRLYGYDYWGQGTQVTVSS | high polyreactivity
18 | QDQLVESRGGLVQAGGSLRLSCAASGRIFLTNAMGWDRKAPGKERELVAAITSGGSTYYADSVKGRFTISRDNAKNTVFLQMNSVKPEDTAVYYCNADTDRYCPYEYDYWGQGTQVTVSS | low polyreactivity
19 | QDQLVESVGGLDQAGGSLRLSCAASGFIFGANAIGWYRQATGKEREMVAAISSSGGRYELRRSVKGRFTISRDNAKNTVYLQMNSLKPEDTAVYYCATPYPTGRPRHYSWGQGTQVTVSS | high polyreactivity
20 | QDQLVESVGGLVQAGGSLRLSCAASGRTFGRYPMGSYIEAPGKEREMVAAIRSGGSTYYADSVKGRFTISRDNAKNTVYLLMNSLKPEDTAVYYCAADIDRHLTGFAYYRLDYWGQGTQVTVSS | low polyreactivity
21 | QDQLVESVGGLVQAGVSLRLSCAASGSTLRKYAMGWYRQAPGKESELVAAISNSGGGTYYADSVKGRFTISRDNAKNTVYLQMNSLKPEDTAVYYCAARYGPSYGYGLYYPRRDYWGQGTQVTVSS | high polyreactivity
22 | QDQLVESWGGLVQAGGSLRLICAASGFIFRSYAMGWYRQAPGKERELVAAITYSGGRTYYADSVKGRFTISRDNAKNTVYLQMNSLKPEDTAVYYCAAETRVDFYWGQGTQVTVSS | high polyreactivity

Row | Sequence | polyreactivity (PSR sort gate)
23 | QDQLVESWGGLVQAGGSLRLSCAASGFTFRNNAMGWYRHAPWKERDLVASITARGGSTYYADTVKGRFTISRDNAINTVYVQLNILKTEDTAVYYSATDDYTWRRHPWYAGYDSWGQGTQVTVSS | low polyreactivity
24 | QDQLVETGGGLVQAGGSLRLSCAASGRIFAYNSMGWYRQAPGKERELVAAISWSGSSTYYADSVKGRFTISRDNAKNTVYLHMNCLKPEDTAVYYCAATPWYYYSTSYAYYYWGQGTQVTVSS | high polyreactivity
25 | QDQLVHSGGGLVQSGGSLRISCAASGFTFYLYGMGRYRQAPGKERDLDAAIDSTGSTNYADSVKGRFTISRDNAKNTVYLQMNSLKPEDTAVYYCAADFYLYYFRSPYDYWGQGTQVTVSS | high polyreactivity
26 | QDQLVQSAGGLVQAGGSLRLSCAASGRTIRAYAMGWYRQAPGKEREFVAAITWGDGSTYYADSVNGRFTISRDNAKNTVYLQMKSLKPEDTAVYYCATVQSCRVRTYDYWGQGTQVSVSS | high polyreactivity
27 | QDQLVQSGGGLVQAGGSLRLSCAASGFTFYYYAMGWYRQAPGKETELVAGISKSGGITYYADSVKGRFTISRDNAKNTVYLQMNSLKPEDTAVYYCAAAAWYQFFLYRYTYEYWGQGTQVTVSS | low polyreactivity
28 | QDQLVVSGGGLVQAGGSLRLSCAASGFIFYRYSMGWYSQEPGKEREVVASITRSGGSTYYAASVKGRFTISRDKAKNTLYLPMNSLKPVETAVYYCATAIRYFVSYDYWGQGTEVTVSS | high polyreactivity
29 | QDQRVDSGGGLVQAGGSLRLSCAASGSNFQWNAMGSYRHATGKERELVAAISGTGGNTYYADSVKGRFTISRDNAKNTVYLQMNSLKREDTAVYYCNTDYGEYYSWYLQWWYIPFDYWGQGTQVTVSS | low polyreactivity
30 | QDQRVESGGGLDQAGGSLRLSCAASGSIFLVYAMGWYRQAPGKEMEFVAAITWSGGSTYYADSVKGRFTISRDIAKNTVYLQMNSLKPEDTAVYYCAVEIWIPTWYGLSGEYDYWGHGTQVTVSS | low polyreactivity
31 | QDQRVESGGGLVQAGGSLRLSCAASVRTVNFNVMGWYSQARGKERELVAAISKSTGSTFYADSVKGRFTMSRDNAKNTGYLQKNSLKPEDTAVYYCIAVRCYGSGRGYGYCGQGTQVTVSS | high polyreactivity
32 | QEQLLDSGGGLVQAGGSLRLSCAASGYFSSHILSWYRQGPGKVREFVDTITDGGTTDYADSVKGRFTISRDNAKNTVYLQMNSLNPQDTAVYYCAAVATYSYHFGYWGHGTQVTVSS | high polyreactivity
33 | QEQLLESGGALVQAGGSLRLSCMASGSILGDRMSWYRQAPGKEHELVATIYDGGITYYADSMKGRFTISRDNAKNTVYLQMNSLRPEDTAVYYCGASFEGYRYHVYCGQGTQVTVSS | low polyreactivity
34 | QEQLQESGGGLVQACGSLRLSCAASGYIFSHQYMGWYRQAPGKERELVASISPGATTNYADSVKGRFTISRDNAKNTVYLQMNSLKPEDTAVYYFAVYKILDRRLSYWGQGTQVTVSC | high polyreactivity
35 | QEQLQESGGGLVQAGGSLRLSCAASGSISQAWYMGWYRQAPGKERELVAAINVGAITYYADSVKGRFSISRDNAKNTVYLPMNSLTPEDTGVYYCAVDQYSEAYYDYWGQGTQATVSS | high polyreactivity
36 | QEQLQESGGGLVQAGGSLRLSCAASGTISYAGPMGWYRQAPGKEREFVAGIGVGSNTNYADSVKGRYTIIRDNAKNTVYLQMNSLKPEDTAVYYCAVGGYAPLGRPYWGQGTQVTVSS | low polyreactivity
37 | QEQLQESGGGLVQAGGSLYLSCAASGNIFEYYDMGWYRQGKERELVAGISYGTNTNYAVSVKGRFTISRDIAKNTVYLQMNSLKPEDTAVYYCARRIGHGSRPYWLETWLYPYDYWGQGTQVTVSS | low polyreactivity
38 | QEQLQESGGGLVQAGGTLRLSCSASGTISPLPAMGWYRQSPGKEREFVAGIDTGAITNYADSVKGRFTISRDNAKNTVYLQMNSLKPEDTAVYYCAVFPAAYDYYERYYTYWGQGTQVTVCS | low polyreactivity
39 | QEQLQESGGGQVQAGGSLLLSCAASGNIIPSYYMGWYRQAPGKERELVAAITYGTSTNYADSVKGRFTISRDNAKNTVFLQMISLKPVDTAVYYCAVDFNYGDPLVHWGQGTQVTVSS | high polyreactivity
40 | QEQLQESGGGQVQAGGSLLLSCAASGNIIRYYYMGWYRQAPGKERELVAAITYGTSTNYADSVKGRFTISRDNAKNTVYLQMNSLKPEDTAVYYCAVVVNYGDPLDNWGQGTQVTVSS | high polyreactivity
41 | QEQLQETGGGLVQAGGSLRLICASSGSIFFVYGMGWSRQAPGKERELVAGINAGTNTNYADSVRGRFTISRDNAKYTVHLQMNSLKPEDTAVYYCAADGNGYQAHEYWGQGTQVTVSS | high polyreactivity
42 | QEQLVESGGGLVQAGGSLRLSCAASGNTFSYNAMGWYRQAPGKEREVVAAISSRGVRTYYADSVKGRFTISRDNAKNTVYLQMNSLKPEDTAVYYCAADLWDWAYDYWGQGTQVTVSS | high polyreactivity
43 | QEQQQESGGGQLQAGGSLLLSCAASGNIIRYYYMGWYRQAPGKERELVAAITYGTSTNYADSVKGRFTISRDNAKYSVYLQMISLKPEDTAVYYCAVDVNYGDPLDNWGQGTQVTVSS | high polyreactivity
